Experimental data as given in article PMC3777412 (Nature communications, 2013).
Where no end group is shown, it is not given here. [ ]: non-standard residue; d: D form. The star is where a group is joined. Biotin = O=C1N[C@H]2[C@H](CS[C@H]2CCCCC(=O)*)N1; pY = N[C@@H](Cc1ccc(OP(=O)(O)O)cc1)C(=O)O

Target: Grb2, histidine-tagged, purified (UniProt P62993 1-217)
Assay: SPR

Kd [nM] | Binder
68.5 ± 8.7 | Biotin-ASASASARV[pY]ENVGLM [pY580 peptide]
118 ± 10.3 | Biotin-ASASAKGHE[pY]TNIKYS [pY542 peptide]
